# Data from a protein production outcome set (Wang et al. 2014).
# Assay: label from the status in PepcDB records
# 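Further: failed if final PepcDB status was selected cloned or expressed and not failed if soluble or beyond.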
sequence,measurement,value
YANEEKGLEIAQERKARDEGWGDSIATMEMILKNAQGESSTRLMRLKSLEVEGDGDKGLTIFDQPRDVTGTAFLNHSHTIGADDQWLYLPALKRVKRISSRNKSGPFMGSEFAYEDLSSFEIEKYRFNHLKDEKFNGQDVFVLEQIPTDKNSGYTKQVVWLDKAHYRPLKVEFYDRKGALLKTLTFANYKQYLDKYWRAHTMAMTNHQTGKSTELNTSDLRFQTGLEENDFNKNVLKRVK,protein production,failed
MNNRPQLIYILPNLFTAASAFLGVISIIASIHGNYYTALIYIILSLICDGLDGRVARLTNSTSKFGVEFDSLADLVAFGVAPAVLFYMAIGYDFGKLGSLITAFFVVFGAIRLARFNVTTGTYEPSVFIGLPIPTAAVVSAIWTYAFISYDFLKPYGVVFLVLQAILGLLMVSNIRYPSFKKLDFNRSSVLKVLIILIIIFSFLYLYPLESLVILASLYVLYGIIRVLYTIIVSKFKIRNQE,protein production,failed
MNGPAYEGGFKKFINGEFRMKAEKNLNKTRNISYAGLFFSLALTIFKLFAGLLGHSTALLADAVRSFSELINELVKLLDLSIAGKPEDWSHNYGHGKVATLVTGAGACVLLFAGIQSASLASGELLMFIQGKETEAPELFALSAAAFALVSKEIIPLFSRLAWKQTDKSLSETDIYTGNSRLKSLGLSCFVTLGIGCTFLPGKNWAVTDSLIAVLLSLYLLGSSGRLLYGTANELIEASLDEENNRKIREIINRTEGVLGSGELKTRRIGNGIAINACITVNSSLNIQEVAEIADLAEERLKKAYGEGIYTLIKAEPALERNCSFQKKPKISKEGGNKIIV,protein production,failed
MTEDQVEILEYNFNKVNKHPDPTTLCLIAAEAGLTEEQTQKWFKQRLAEWRRSEGLPSECRSVTD,protein production,not failed
MIARIPKDIPDLPAIPGMPVLMPSAVPAAAVVAPTRRPLTTAFRLLVALAATAGVTIDLILGSPLRVLTYFTIQSSVLVALTFTLSAWRAWAARRPLPALLTGGTLLYAVITGLVYHLLLAHEPAPFTMTGQAGPLTGWQALTNQLLHTAVPVAVVLDWLLLTGSGRLRLRQASAWLLYPLAYLALTLARGELILPGTPGRYLYPFLDVEQHGYKSVLGNALLLGLAFYALAVLLVTLDRVRPNPLRRRAKNGFRLQPPVG,protein production,failed
MLKRTFILIGLVLSFCSLPAQELIQITTRNTALVFRVANQSLRQVYYGPRLADTDVLQKQGNNFPAYSTYGMGEQNEVALHAVHADGNTSTLLNFENVKQESPEPGITLTTISLKDPLYPFQVKLFYKAYEESDLIEQWTIYQHTEKKPVTLYQFASAQLSFKSSSYRLTHFAGDWAGECNMSEVELTEGIKVIDSKLGTRATFFAHPMCLLSLNGRMTEDNGEVIGMALAWPANFKLEFEKNNNQELRVLAGMNPYASHYKLKKGDVFQTPSFLYTYSTKGNGQVSRNFHRWARKYGLRHGENSRYTLMNNWEATYFNFNEPKLKSIIEDAAGMGFELFLLDDGWFGQKHPRNNDDAGLGDWVVNKEKLPNGLGWLVKQCTDNDIKFGIWVEPEMVNPQSELFEKHPDWVIQQPEREHILFRRQLVLDLSNPEVQEFVYKSVHDILKDNPQIAFVKWDCNRAVTNPGSTYLPADEQSHIWIEYGRGLLNVFKKVRDSHPDVHFMLCSGGGGRLDYGSLRYFEEYWPSDNTDALQRILIQWGNSQFFPSIAMCCHVSASPNHQTGRTTPLKFRFDVAMQGALGMDLQPSTMNEKEVIFAKEAIKTYESIRNIVFTGDLYRILSPYEGNRTSMMYVLPDKSRAVFYAYQLKSHIGEVSAPMRFKGLIPDKKYNVKELNIYPGSRAATGSANGQSFSGDFLMNQGLPIGLSGDYSSAVIELEQQ,protein production,failed
MALKTDIRGMIWRYPDYFIVGREQCREFARAVKCDHPAFFSEEAAADLGYDALVAPLTFVTILAKYVQLDFFRHVDVGMETMQIVQVDQRFVFHKPVLAGDKLWARMDIHSVDERFGADIVVTRNLCTNDDGELVMEAYTTLMGQQGDGSARLKWDKESGQVIRTALEHHHHHH,protein production,failed
MKRVALIHGWGGSFAATWEADGWSDALRAAGFDPVGVTIAGHGPEGGSHDPADYADLAGDLAAKLPAGLHGAIGFSLGTKLLLELEARSPGRNGRLVLGGIGDNLFAPEAAGPALVAALRGEATTPPPQVAALLAYAEKSASDPACLAAILERPANPVLTEDRLATAQAPILIFNSRDDAVAQPDTRLCRAMPHASHRLIEGPGHVALTSDARFREAAVEFLSK,protein production,failed
GSGLDVKNLVDAIVTAEITPSQVRHDKQLNSVNTELSALGQLKSYLTNLQTSLAKLSSLSQFYTMKSTISDPNYFSATLGTGATKNTYQIEIQKLAQQHS,protein production,failed
MKSPFYRCQNTTSVEKGNSAVMGGVLFSTGLLGNLLALGLLARSGLGWCSRRPLRPLPSVFYMLVCGLTVTDLLGKCLLSPVVLAAYAQNRSLRVLAPALDNSLCQAFAFFMSFFGLSSTLQLLAMALECWLSLGHPFFYRRHITLRLGALVAPVVSAFSLAFCALPFMGFGKFVQYCPGTWCFIQMVHEEGSLSVLGYSVLYSSLMALLVLATVLCNLGAMRNLYAMHRRLQRHPRSCTRDCAEPRADGREASPQPLEELDHLLLLALMTVLFTMCSLPVIYRAYYGAFKDVKEKNRTSEEAEDLRALRFLSVISIVDPWIFIIFRSPVFRIFFHKIFIRPLRYRSRCSNSTNMESSL,protein production,failed
MNLLTVSTDLISIFLFTTLFLFFARKVAKKVGLVDKPNFRKRHQGLIPLVGGISVYAGICFTFGIVDYYIPHASLYLACAGVLVFIGALDDRFDISVKIRATIQAAVGIVMMVFGKLYLSSLGYIFGSWEMVLGPFGYFLTLFAVWAAINAFNMVDGIDGLLGGLSCVSFAAIGMILWFDGQTSLAIWCFAMIAAILPYIMLNLGILGRRYKVFMGDAGSTLIGFTVIWILLETTQGKTHPISPVTALWIIAIPLMDMVAIMYRRLRKGMSPFSPDRQHIHHLIMRAGFTSRQAFVLITLAAALLASIGVLAEYSHFVPEWVMLVLFLLAFFLYGYCIKRAWKVARFIKRVKRRLRRNRGGSPNLTK,protein production,failed
MAQFLEKATSALSEAKESVTSTAESVTASLTDAEKTVNQTARSTLTDAETTVAASVETVKTEAAAAPDKASGVSTQAKDAVDKAFSRGIEGAKSLLQTFEAKSSDISSKLVGGVTNLVSGASSSTVANRDLPVSTDNQPLLASGEKTPWWKNCCGVLDLFKKDT,protein production,failed
AIQKQMLVPEVVVNKDGDWVTPVMKDEGSIQYFVVFRFINGNEIIEPKDKDYEKLGSFMRMFHEKTNGVLKSVPQTWRGYERPIYSEKKMIHEPLQCLLNTSFLSYEDKNKCLRIAERIQELTNSIQLREKQFVHGDMHFGNILVDKEDWYLLDFDECGFGYKEFDIGVPRLHLIASGQLEDAWGNFMMGYGENIS,protein production,failed
MGHHHHHHSHMPQFSPSYSFPVQIYYEDTDFSGVVYHPNFLKYFERAREHVIGAEQLRNLWQQQQLGFAVYRSDMLCHEGVEFADIIDIRTKFYFESKYRTVWHQEIWRPNGKKPAVTATIEMVCMNQARQLAPMPAELITQLSLGM,protein production,not failed
MQSFFDREFTFDRTARLFFIILLVGGIMAIVIGLRGILIPFCLSWILAYVLMPLVRFVQYRLHFRFRFLSVITVLVFISALIFFAILSLVPAVEEEVSKTITLLQQYRIDENLLQMLPAPIRKFLSESGSMNDLFKGISYEKLMENSKEIFGQLNKLVSGTISLFSYTTIFFIGVLYFIFILFDFEKLGKGFVNLFPVGHRIRVRSILKEVDKNMNSYFRGQALIALCVGILLSIGYKIIDFPLGVTLGLFIGMLNLIPYLQIVGLIPIVFLSVLKAAQTGQNFFVVLALGIGVMMIVQVIQDTILTPNIMGKRMGMSPAMILLSISIWGSLLGFFGLFIALPLTMSLYSVYKRYVIQDPKFIREENEETMPKKGLFRKHSRKEEK,protein production,failed
MPNQVLFCITKMRYEEKRIYHYLEESGLSIKIMLDSSNLDEVVAHNSDYCLCIVRVMSQHRAFRIAEYMEALGIPTLNSSRAIQICADKAIQALILANRDVIKQPHFSILRNYEDLSNFNGKMVVKPVSSSWGRGISLIENEDALTTWKISHQELDIQNQNLPYLIQEFIDKPNYDVRIVIINTKPVVAFKRVSANNWKTNTHLGATVVPIVIDDSINKIVTEIIKVVGPGIYGLDLMKNRQNEWIFCEINQNPEFAHSWKIHHVDVAEKIAQYVSSKVKVGQKNASTHLEHHHHHH,protein production,failed
MTDEDSEANALADPDNPPLSAEQLASAPRMPRIKIIRRALKLTQEEFSARYHIPLGTLRDWEQGRSEPDQPARAYLKIIAVDPEGTAAALRKGAT,protein production,not failed
MQVTFHPRACRFLKTRKAEKPNNEPLYASTSNRETIGDTGMSNPWIAIGALAVVALAIPLTMMAVSSLLRPSVPEQGKRTTYESGEVPTGSSRQIKFNIQYYMVALLFVVFDIETVFIFPWTVIYSDAAAELGMTTALLPMVVFITILAIGLGWAWRNGAVQWVRSPRATKGADTYE,protein production,failed
MKVDVDEKTYIITMANDITKLYEENKRNLHYSITDPLTGAYNRKYLNDRFDIFIGDYIVLIDLDNFKMINDYEGHNVGDKILCDFVSLLNKELINSTSIIRLGGDEFIVIFSSDVDKNYVYSQLEALRENFLKVFSKYKYLSFSYGVDTVKRNLKLTIVELDKKMYKNKEKNKKKFDKNLEHHHHHH,protein production,not failed
EEIRKIPMFSSYNPGEPNKVLYLKNLSPRVTERDLVSLFARFQEKKGPPIQFRMMTGRMRGQAFITFPNKEIAWQALHLVNGYKLYGKILVIEFGKNKKQRS,protein production,not failed
MDGVYVLSVKEDVPAAGILHAGDLITEIDGQSFKSSQEFIDYIHSKKVGDTVKIKYKHGNKNEEASIKLTAIDKKGTPGIGITLVDDLEHHHHHH,protein production,failed
MSYLEYTVKSTPSGLRKILYMNWPLTLLLISVASAGFLMLYSVAGGSFSPWAEPQIKRFMAGLVVMTAVAMVPIWFWRNMAAVAYGGSLVLLVMVELFGAVGMGAQRWIDLGFMRLQPSELTKITLVMVLAAYYDWLPGKKTSRPLWVLVPVLIILVPTALVLKQPDLGTAILLLSAGGALMFLAGVHWAYFAAVIAAGVGLITAVFKSRGTDWQLLKDYQFRRIDTFLDPSSDPLGAGYHITQSKIALGSGGWSGRGFMQGTQSRLNFLPEKHTDFIFTTLAEEFGFIGGISLLSLYALIIAFCVATALATRDRFSSLVTLGIAVNFFLFFAVNMSMVMGLAPVVGVPLPMVSYGGSAMLVLLVAFGLVHSAHIHRPR,protein production,failed
MRKSVSRASSIITGLLVMSIGLNSTEYLSIYKLILFNKKTCMKLKTHFVFSIGLLTLASSFFGFSLIISAIISVLGNTLIDRLGHKEISTRYGKIPVRTPLTHTLPRSVFWGLISSMPVIIVLGLAYGMLNTKILTALIDGILVGPSHMLLDVFTENGIYVKRNGKWKRVALAHFSYDSSLINGLAIVLGIIMIFAAMELHH,protein production,failed
MNVLRPALLTLACMLASPVMSDDLPSLGDASSSIVSPEQEFQLGRAWLSMLRNQVDAISDPQLKDFVESSVYRLAETSDLQDHRLAFILIRDAQINAFAAPGGVIGVNGGLLLNAQTEGEYAAVLAHELGHLIQRHFARGIEAQQRMQLPVMAAMLAGIVAAAAGAGDAGIAAIAGTQAAAIQNQLRFSRQNEQEADRVGVTNMVRAGYDPRSMPNMFERLARQYRYDGKPPEFLLTHPVTESRIADTRNRAEQYPQGGKEDSLRYQQMRARTQLLFEETPGMAGKRFRAMLNDNPKLDAARYGLAISQTRIGQLNDARDNLRQLLAKAPNDVAYNLAQVELDITANRLPDADQRLKKMLAQFPSSYPLKQVRADLMLKMGKPQESEKILDDLSKARPLDPDVWNRLAEVRSLTNNAIGVHQARAEYLSLTGDYQAAIEQLDFAKRRAGGNFQLAARLDARQQEIRQQEKMVKEMFR,protein production,failed
MVKKIGLSIMLLFFFLIIALPIYAWKIEPNLVHVNQVTLGKKNQREPLNVVQLSDIQVSEFYETKRLDKVIKKVNREKPDIIVFTGDLFDNYAKNPQQKEPMIEKLKQLQATIGKYAVWGNHDYGGGASAVYDEVMEASGFTVMKNQGETVTLADGRRLFIGGLDDSLLGNPSVSETLSYRETYDYALLMTHEPDVADAFVGTGTQLVLAGHSHGGQIWIPFYPITNVLAEKYTRGLYQLDQETQLYVNTGLGTTAIHARFGVIPEITHFTIYI,protein production,failed
